Here are results for four molecules from article PMC6586363, “Phenotypic selection with an intrabody library reveals an anti-apoptotic function of PKM2 requiring Mitofusin-1” (PLoS Biology, 2019).

Data set [1] concerns the molecule itself. As to the kind of experiment: native gel or EMSA; blue native gel electrophoresis of recombinant PKM2 (WT or mutant) or PKM1, alone or with FBP and/or scFv 5; resolves dimer and tetramer forms. Background: Mobility shift assays separate free from complexed probe on a gel.
The target in data set [2] is T1, pyruvate kinase M2 (PKM2), endogenous in 293T cells (Homo sapiens (Human)., UniProt P14618).
T1 construct: pyruvate kinase isoform M2 (PKM2), product of the PKM gene with exon 10; also called 55-kD protein; source: endogenous, HEK293T lysate
T1 sequence (P14618 whole entry, canonical isoform): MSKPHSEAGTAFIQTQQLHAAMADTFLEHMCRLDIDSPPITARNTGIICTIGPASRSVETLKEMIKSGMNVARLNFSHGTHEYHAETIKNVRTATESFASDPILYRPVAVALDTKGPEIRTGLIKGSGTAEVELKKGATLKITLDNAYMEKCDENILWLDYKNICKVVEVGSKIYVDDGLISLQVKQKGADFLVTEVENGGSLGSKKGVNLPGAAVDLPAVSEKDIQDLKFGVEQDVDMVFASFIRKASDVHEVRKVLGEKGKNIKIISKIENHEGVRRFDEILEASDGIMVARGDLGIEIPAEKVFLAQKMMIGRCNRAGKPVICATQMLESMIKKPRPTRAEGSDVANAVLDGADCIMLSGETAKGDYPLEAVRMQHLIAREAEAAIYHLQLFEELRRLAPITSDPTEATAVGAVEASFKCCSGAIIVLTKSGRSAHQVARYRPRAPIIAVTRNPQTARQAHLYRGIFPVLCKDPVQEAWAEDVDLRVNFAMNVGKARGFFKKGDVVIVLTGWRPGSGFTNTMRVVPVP
Description: affinity purification with mass spectrometry; lysate (1% Triton X-100) of 293T cells expressing FLAG/Strep-tagged intrabody; anti-FLAG M2 beads 2 h at 4°C, elution with 3X FLAG peptide, then Strep-Tactin; SDS-PAGE with silver stain, bands identified by MALDI TOF/TOF. Conditions: partners not purified.

The target in data set [3] is T2, recombinant human PKM2, wild type (human, UniProt P14618).
T2 construct: Runs as dimer and tetramer on blue native gels; also called WT PKM2; His-hPKM2; source: E. coli BL21 (DE3), purified (Ni-NTA)
T2 sequence (P14618 whole entry): as the sequence (P14618 whole entry, canonical isoform) above
Description: native gel or EMSA; blue native gel electrophoresis; recombinant scFv 5 mixed with recombinant PKM2 (WT or mutant) or PKM1 at various molar ratios, reaction volume 20 μl. Conditions: both partners purified.

B1: recombinant PKM2 (K422R) (enzyme)
chain: not shown
notes: human pyruvate kinase isoform M2 with K422R; also called stably tetrameric PKM2 mutant; source: recombinant; WT and mutant PKM2 proteins from E. coli BL21 (DE3), purified (Ni-NTA)
Consider B1, for which the stoichiometry N (usually a count of units in the complex or per binding partner) in data set [1] was 4.

B2: intrabody 5 (IB5) (scFv, V domains shown)
VH: QVQLVETGPGLVKPSETLSLRCTVSGGSFDNYYWNWIRQPPGKGLEYIGYVFPSTGATNYNPSLGSRVTISLDTSKNQFSLTLTSVTTADTAIYYCVRSGHDLWTGSTWFDPWGQWTTVTVSS
VL: EIVLTQSPGTLSLSPGERATLSCRASQSVSSSYLAWYQQKPGQAPRLLIYGASSRATGIPDRFSGSGSGTDFTLTISRLEPEDIAVYYCQQRSNWPRTFGQGTKVEIK
notes: human VH and VL joined by a flexible peptide linker, from a naive human combinatorial scFv library; Expressed without a secretion leader from an EF1alpha lentiviral vector; The tandem Strep-tag was added for the target immunoprecipitation construct; also called clone 5; scFv 5; source: HEK293T, infected with intrabody lentivirus, in lysate; not shown: FLAG, C-terminal, kept
For the molecule B2, in data set [2], the binding result is “binds”.

B3: recombinant monovalent scFv 5 (corresponding to IB5) (scFv, V domains shown)
VH: QVQLVETGPGLVKPSETLSLRCTVSGGSFDNYYWNWIRQPPGKGLEYIGYVFPSTGATNYNPSLGSRVTISLDTSKNQFSLTLTSVTTADTAIYYCVRSGHDLWTGSTWFDPWGQWTTVTVSS
VL: EIVLTQSPGTLSLSPGERATLSCRASQSVSSSYLAWYQQKPGQAPRLLIYGASSRATGIPDRFSGSGSGTDFTLTISRLEPEDIAVYYCQQRSNWPRTFGQGTKVEIK
notes: as the scFv of m1; also called purified scFv 5; recombinant scFv; source: E. coli Rosetta (DE3)pLys, pET28a, purified (Ni-NTA)
B3: the binding result in data set [3] is reported as “binds”.

B4: recombinant PKM2 (K270M) (enzyme)
chain: not shown
notes: human pyruvate kinase isoform M2 with K270M, plasmid pET28a-His-hPKM2 (K270M); source: E. coli BL21 (DE3), purified (Ni-NTA)
On to B4, for which the “stoichiometry N” value in data set [1] amounted to 2.
